Assay results taken from US20190092871A1 (VIB VZW, published 2019).

T1: mouse CD20 (mouse, UniProt P19437 1-291)
T1 construct: whole, on cells; also called mCD20; CHO-K1-mCD20
T1 sequence (looked up): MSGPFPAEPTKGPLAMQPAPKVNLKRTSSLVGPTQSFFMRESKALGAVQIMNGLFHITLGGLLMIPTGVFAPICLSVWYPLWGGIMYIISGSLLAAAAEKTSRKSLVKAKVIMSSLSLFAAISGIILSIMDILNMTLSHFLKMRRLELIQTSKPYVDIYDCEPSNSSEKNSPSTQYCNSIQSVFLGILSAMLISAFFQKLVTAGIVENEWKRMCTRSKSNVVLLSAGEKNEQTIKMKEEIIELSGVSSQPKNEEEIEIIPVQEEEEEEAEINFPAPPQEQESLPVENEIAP

T2: human CD20 (human, UniProt P11836 1-297)
T2 construct: The forward primer starts at codon 2; also called hCD20; CHO-K1-hCD20
T2 sequence: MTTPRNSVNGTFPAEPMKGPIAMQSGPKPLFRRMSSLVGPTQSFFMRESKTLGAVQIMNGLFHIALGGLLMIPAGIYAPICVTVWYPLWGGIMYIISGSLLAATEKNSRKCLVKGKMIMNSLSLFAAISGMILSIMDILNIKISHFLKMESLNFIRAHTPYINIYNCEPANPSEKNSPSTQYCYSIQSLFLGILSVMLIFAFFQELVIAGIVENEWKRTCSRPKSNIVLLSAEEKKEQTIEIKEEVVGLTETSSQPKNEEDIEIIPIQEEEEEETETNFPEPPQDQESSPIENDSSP


What was measured:
[1] = target: T1, mouse CD20; assay: cell ELISA, crude periplasmic extract, CHO-K1 expressing mouse CD20 against parental CHO-K1
Method: The library was subjected to 3 consecutive rounds of panning (in solution), performed on stably transfected CHO-K1 cells expressing mouse CD20. A parallel panning was performed on parental (non-transfected CHO-K1) cells to serve as negative control for the calculation of CD20-specific phage enrichment. The enrichment for antigen-specific phages was assessed after each round of panning by comparing the number of phagemid particles eluted from transfected cells with the number of phagemid particles eluted from parental cells. […] In total, 285 colonies (95 from each round of panning) were randomly selected and their crude periplasmic extracts (including soluble VHHs) were analyzed by cell ELISA for specific binding to transfected CHO-K1, as compared to parental cells. […] The 11 different VHHs belong to 2 different groups.
The library was subjected to 2 consecutive rounds of panning (in solution), performed on stably transfected CHO-K1 cells expressing mouse CD20 as described above. Here, the phage population was enriched (for antigen-specific phages) about 2- and 45-fold after 1st and 2nd rounds of panning, respectively. Here, 190 colonies, randomly picked from 2nd round, were tested by cell ELISA as above and 10 colonies scored positive. Based on sequence data, the 10 positive colonies represented 8 different VHHs (FIG. 4, bottom panel). The 8 different VHHs belong to 2 different groups. One of the groups identified here is the same group as one of those identified above.

[2] = target: T2, human CD20; assay: cell ELISA, crude periplasmic extract, CHO-K1 expressing human CD20 against parental CHO-K1

Binder	binding result [1]	binding result [2]
R2MUC70 (VHH, Whole entry = VHH-AAA-HA-His6 (pMECS construct)) VHH: QVQLQESGGGLVQAGGSLRLSCAASGRDFATYSMAWFRQAPGKERESVATISWSGQRTRYADSVKGRFTISRDNAKNTVYLQMNSLKPEDTAVYYCAAPRTWGEFPPTQYDSWGQGTQVTVSS	binds	
R3MUC17 (VHH, Whole entry = VHH-AAA-HA-His6 (pMECS construct)) VHH: QVQLQESGGGLVPAGGSLRLSCAASGRDFATYSMAWFRQAPGKERESVATISWSGQRTRYADSVKGRFTISRDNAKNTVYLQMNSLKPEDTAVYYCAAPRTWGEFPPTQYDSWGQGTQVTVSS	binds	
2MC52 (VHH, Whole entry = VHH-AAA-HA-His6 (pMECS construct)) VHH: QVQLQESGGGLVQAGGSLRLSCVASGRTFNTYSMGWFRQAPGKEREFVASISWSGQRSRYADSVKGRFTISRDNAKNTVYLQMNSLKPEDTAVYYCASPRTWGEFPPTQYDSWGQGTQVTVSS	binds	
R3MUC58 (VHH, Whole entry = VHH-AAA-HA-His6 (pMECS construct)) VHH: QVQLQESGGGLVQPGGSLRLSCAASGRDFATYSMAWFRQAPGKERESVATISWSGQRTRYADSVKGRFTISRDNAKNTVYLQMNSLKPEDTAVYYCAAPRTWGEFPPTQYDSWGQGTQVTVSS	binds	
R2MUC85 (VHH, Whole entry = VHH-AAA-HA-His6 (pMECS construct)) VHH: QVQLQESGGGLVQPGGSLRLSCATSGRDFATYSMAWFRQAPGKERESVATISWSGQRTRYADSVKGRFTISRDNAKNTVYLQMNSLKPEDTAVYYCAAPRTWGEFPPTQYDSWGQGTQVTVSS	binds	
R3MUC22 (VHH, Whole entry = VHH-AAA-HA-His6 (pMECS construct)) VHH: QVQLQESGGGLVQAGGSLRLSCAASGRTFSTYSMGWFRQAPGKEREFVAIISWSGQRTRYADSVKGRFTISRDNAKNTVYLQMNSLKPEDTAVYYCAAPRTWGEFPPTQYDSWGQGTQVTVSS	binds	
R3MUC57 (VHH, Whole entry = VHH-AAA-HA-His6 (pMECS construct)) VHH: QVQLQESGGGLVQAGGSLRLSCAASGRDFATYSMAWFRQAPGEERESVATISWSGQRTRYADSVKGRFTISRDNAKNTVYLQMNSLKPEDTAVYYCAAPRTWGEFPPTQYDSWGQGTQVTVSS	binds	
R3MUC75 (VHH, Whole entry = VHH-AAA-HA-His6 (pMECS construct)) VHH: QVQLQESGGGSVQTGGSLRLSCAASGRDFSTYSMGWFRQAPGKERESVATISWSGQRTRYADSVKGRFTISRDNAKNTVYLQMNSLKPEDTAVYYCAAPRTWGEFPPTQYDSWGQGTQVTVSS	binds	
R3MUC56 (VHH, Whole entry = VHH-AAA-HA-His6 (pMECS construct)) VHH: QVQLQESGGGLVQAGDSLRLSCAASGRDFATYSMAWFRQAPGKERESVATISWSGQRTRYADSVKGRFTISRDNAKNTVYLQMNSLKPEDTAVYYCAAPRTWGEFPPTQYDSWGQGTQVTVSS	binds	
R3MUC66 (VHH, Whole entry = VHH-AAA-HA-His6 (pMECS construct)) VHH: QVQLQESGGGLVQAGGSLRLSCAASGRDFATYSMTWFRQAPGKERESVATISWSGQRTRYADSVKGRFTISRDNAKNTVYLQMNSLRPEDTAVYYCAAPRTWGEFPPTQYDSWGQGTQVTVSS	binds	
2MC57 (VHH, Whole entry = VHH-AAA-HA-His6 (pMECS construct); also called mCD20 Nb) VHH: QVQLQESGGGLVQAGGSLRLSCAASGRDFATYSMAWFRQAPGKERESVATISWSGQRTRYADSVKGRFTISRDNAKNTVYLQMNSLKPEDTAVYYCAMPRTWGEFPPTQYDSWGQGTQVTVSS	binds	
R2MUC21 (VHH, Whole entry = VHH-AAA-HA-His6 (pMECS construct)) VHH: QVQLQESGGGLVQAGDSLRLSCAASGRDFSTYSMGWFRQAPGKERESVATISWSGQRTRYADSVKGRFTISRDNAKNTVYLQMNSLKPEDTAVYYCAAPRTWGEFPPTQYDSWGQGTQVTVSS	binds	
R2MUC36 (VHH, Whole entry = VHH-AAA-HA-His6 (pMECS construct)) VHH: QVQLQESGGGLVQAEGSLRLSCAASGRTRDANAMGWFRQAPGKERELVAAISWSGSRTYYADSVKGRFTISRDNVMHTVYLSMNSLKPEDTAVYYCAADRSIEVQIADYDYWGRGTQVTVSS	binds	
2HCD16 (VHH, Whole entry = VHH-AAA-HA-His6 (pMECS construct)) VHH: QVQLQESGGGLVQAGGSLRLSCAASGRTFSRQSMGWFRQAPGKEREFVAVITWSGGSPYYADSVRGRFTISRDNAKNTVYLQMNSLKPEDTAVYYCAAPVSYGSQWLADYWGQGTQVTVSS		binds
2MC39 (VHH, Whole entry = VHH-AAA-HA-His6 (pMECS construct)) VHH: QVQLQESGGGLAQAGNSLRISCVASGNTFDTRAMGWFRQAPGKEREFVAAISRSSFNTYYSDSVTGRFTISRDNAKNTVYLQMNSLKPEDTAVYYCAAGKYGMKWRDGADYWGQGTQVTVSS	binds	

Other lines, results leading:

binding result [1]	binding result [2]	Binder
	binds	R3CD105 (VHH, Whole entry = VHH-AAA-HA-His6 (pMECS construct)) VHH: QVQLQESGGGLVQAGGSLRLSCAASGRTFSNYNMGWFRQAPGKEREFVAAIDWSGGSPYYAASVRGRFTISRDNAENTVYLQMNSLKPEDTAVYYCAAPLSYGSTWLADYWGQGTQVTVSS
	binds	2HCD22 (VHH, Whole entry = VHH-AAA-HA-His6 (pMECS construct)) VHH: QVQLQESGGGLVQAGDSLRLSCAASGRTFSRQSMGWFRQAPGKEREFVAVITWSGGSPYYADSVKGRFTISRDNAKNTVYLQMNSLKPEDTAVYYCAAPVSYGSQWLADYWGQGTQVTVSS
	binds	2HCD35 (VHH, Whole entry = VHH-AAA-HA-His6 (pMECS construct)) VHH: QVQLQESGGGLVQAGGSLRLSCAASGRTFSGQSMGWFRQAPGKEREFVAVITWSGGSPYYADSVRGRFTISRDNAKNTVHLQMNSLKPEDTAVYYCAAPVSYGSQWLADYWGQGTQVTVSS
	binds	2HCD42 (VHH, Whole entry = VHH-AAA-HA-His6 (pMECS construct)) VHH: QVQLQESGGGLVQAGGSLRLSCAASGRTFSSYAMGWFRQAPGKEREFVAVITWSGGSPYYADSVRGRFTISRDNAKNTVYLQMNSLKPEDTAVYYCAAPVSYGSQWLADYWGQGTQVTVSS
	binds	R3CD18 (VHH, Whole entry = VHH-AAA-HA-His6 (pMECS construct)) VHH: QVQLQESGGGLVQAGGSLRLSCAASGRTFSNSNMGWFRQAPGKEREFVAVIDWSGGSPYYTDSVRGRFTISRDNAKNTVYLQMNRLKPEDTAVYYCAGGVSFGSRWLSDYWGQGTQVTVSS
	binds	R3CD7 (VHH, Whole entry = VHH-AAA-HA-His6 (pMECS construct)) VHH: QVQLQESGGGLVQAGGSLRLSCAASGRSFSSVNMGWFRQAPGKEREFVAVIDWSGGSPYYTDSVRGRFTISRDNSKNTVYLQMNSLKPEDTAVYYCAAGVSYGSRWLGDYWGQGTQVTVSS
binds		2MC38 (VHH, Whole entry = VHH-AAA-HA-His6 (pMECS construct)) VHH: QVQLQESGGGLVQAGESLRISCVASGNTFDTRAMGWFRQAPGKEREFVAAISRSSFNTYYSDSVTGRFTISRDNAKNTVYLQMNSLKPEDTAVYYCVAGKYGMKWRDGADYWGQGTQVTVSS
binds		2MC20 (VHH, Whole entry = VHH-AAA-HA-His6 (pMECS construct)) VHH: QVQLQESGGGLVQTGGSLRLSCAASGNTFDTRAMGWFRQAPGKEREFVAAISRSSFNTYYSDSVTGRFTISRDNAKNTVYLQMNSLKPEDTAVYYCAAGKYGMKWRDGADYWGQGTQVTVSS
binds		2MC82 (VHH, Whole entry = VHH-AAA-HA-His6 (pMECS construct)) VHH: QVQLQESGGGLAQEGGSLRLSCVASGNTFDTRAMGWFRQAPGKEREFVAAISRSSFNTYYSDSVTGRFTISRDNAKNMVYLQMNSLKPEDTAVYYCAAGKYGMKWRDGADYWGQGTQVTVSS
binds		2MC51 (VHH, Whole entry = VHH-AAA-HA-His6 (pMECS construct)) VHH: QVQLQESGGGLAQAGNSLRISCVASGNTFDTRAMGWFRQAPGKEREFVAAISRSSFNTYYSDSVTGRFTISRDNAKNTVYLQMNSLKPEDTAVYYCVAGKYGMKWRDGADYWGQGTQVTVSS
binds		2MC42 (VHH, Whole entry = VHH-AAA-HA-His6 (pMECS construct)) VHH: QVQLQESGGGSVQTGGTLTLSCVASGNTFDTRAMGWFRQAPGEEREFVAAISRSSFNTYYSDSVTGRFTISRDNAKNTVYLQMNSLKPEDTAVYYCAAGKYGMKWRDGADYWGQGTQVTVSS
